For two molecules, β-galactosidase activity results are on record in publication PMC5382158 (Frontiers in Cellular and Infection Microbiology, 2017).

Test [1] deals with NarI-T25 (M. tuberculosis). Nature of the test: two-hybrid.
A further test concerns the target T1, Rv2617c-T25 (M. tuberculosis, UniProt I6XER9 1-146).
T1 sequence: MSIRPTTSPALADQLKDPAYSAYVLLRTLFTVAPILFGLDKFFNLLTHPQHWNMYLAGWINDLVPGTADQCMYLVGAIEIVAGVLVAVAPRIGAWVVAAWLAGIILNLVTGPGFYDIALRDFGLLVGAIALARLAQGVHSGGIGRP
As to the kind of experiment: two-hybrid. To be noted: partners not purified.

Molecule KdpF-T18 (peptide) came in with a β-galactosidase activity in test [1] of 1200 Miller units. With MTTVDNIVGLVIAVALMAFLFAALLFPEKF [KdpF-T18], in the test with Rv2617c-T25, the β-galactosidase activity stood at 2030 Miller units.
